Data: publication PMC9728370, “Multiple Tolerances and Dye Decolorization Ability of a Novel Laccase Identified from Staphylococcus Haemolyticus” (Journal of Microbiology and Biotechnology, 2020)

Substrate: CCn1c(=NN=c2sc3cc(S(=O)(=O)O)ccc3n2CC)sc2cc(S(=O)(=O)O)ccc21
Assay: purified protein
Assay type: biochemical, Staphylococcus haemolyticus
Settings: 100 mM sodium acetate pH 4.5, 30°C, ABTS 50-1,000 μM, 5.21 mg/l enzyme

B1: Mco (Staphylococcus haemolyticus) (protein)
chain: MYNKVFTILIIIFSIIIIASNDTFAESKNDMMNMKEDKKNTMDMTNMKHHDERKKLNSSQGKNEIIFPEVAESKKDNNGYKNYTLKAQKGKTEFYKNNFSNTLGYNGNLLGPTLKLKKGDKVKIKLINNLDENTTFHWHGLEVNGKVDGGPSQVIKPGKEKTIKFEVNQDSATLWYHPHPSPNTAKQVYNGLSGLLYIEDSKKNNYPSNYGKNDLPIIIQDKTFVSKKLNYSKTKDEDGTQGDTVLVNGIVNPKLTAKEEKIRLRLLNGSNARDLNLKLSNNQSFEYIASDGGQLKNAKKLKEINLAPSERKEIVIDLSKMKGEKVSLVDNDKTVILPISNKEKSSNKSNTPKVSKKIKLEGMNDNVTINGNKFDPNRIDFTQKLNQKEVWEIENVKDKMGGMKHPFHIHGTQFKVLSVDGEKPPKDMRGKKDVISLEPGQKAKIEVVFKNTGTYMFHCHILEHEDNGMMGQIKVTN
notes: expressed in E. coli pG-KJE8/BL21
B1 was tested, and the Km was 139.8 µM and the kcat was 6.87 s⁻¹.
